The source of these data is patent US20230121197A1, “ANTIBODIES SPECIFICALLY BINDING THE CARBOXYMETHYLATED CATALYTIC SUBUNIT OF PROTEIN PHOSPHATASE 2A” (Medizinische Universität Wien, priority 2020, published 2023).

Assay [1] has as its target T1, PP6c peptides L305, meL305 (Homo sapiens, UniProt O00743).
T1 construct: carboxymethylated versus non-methylated PP2Ac, PP4c and PP6c C-terminal undecapeptides
Kind of assay: ELISA with PP6c C-terminal undecapeptides. The class given is binding. The method, then:
To further characterize the carboxymethyl-PP2Ac specificity of monoclonal antibody 7C10-C5 ELISAs were performed on carboxymethylated versus non-methylated PP2Ac, PP4c and PP6c C-terminal undecapeptides.
Specifically, flat-bottom Nunc-Immuno Medisorp 96-well ELISA plates (Thermo; 467320) were coated o/n at 4° C. with 50 μl of either a peptide of the sequence ac-HVTRRTPDYFL-OH (L309) (SEQ ID NO:18) at a concentration of 2 μg/ml in TBS (137 mM NaCl (AppliChem, #131659, 2.7 mM KCl (AppliChem, #131494), 24.8 mM Tris (AppliChem, #A1086), pH 7.4 with HCl), a peptide of the sequence ac-HVTRRTPDYFL-CH3 (meL309) (SEQ ID NO:18) 2 μg/ml in TBS, with a peptide of the sequence (ac-PSKKPVADYFL (L307) (SEQ ID NO:20) at a concentration of 2 μg/ml in TBS or with a peptide of the sequence ac-PSKKPVADYFL-CH3 (meL307) (SEQ ID NO:20) at a concentration of 2 μg/ml in TBS, with a peptide of the sequence ac-IPPRTTTPYFL (L305) (SEQ ID NO:22) at a concentration of 2 μg/ml in TBS or with a peptide of the sequence ac-IPPRTTTPYFL-CH3 (meL305) (SEQ ID NO:22) at a concentration of 2 μg/ml in TBS. […] Bound antibodies were detected colorimetrically by addition of 50 μl of 33 μg/ml […] (TMB) (Sigma, T2885) in 0.1 M sodium acetate pH 6.0 and 0.01% H2O2 (Sigma, H1009). […] The results from 560 nm read were subtracted from the 450 nm read.

Assay [2] addresses T2, PP2Ac C-terminal peptide meL309, ac-HVTRRTPDYFL-CH3 (α-carboxymethylated) (human, SMILES …).
T2 construct: also called Y307-meL309; mePP2Ac
T2 peptide: Ac-HVTRRTPDYFL-OMe
Briefly: ELISA (FIG. 4). The method, then: Nunc Medisorp 96-well ELISA flat-bottom plates were coated with peptides L309 (ac-[…]) (SEQ ID NO:18), meL309 (ac-[…]-CH₃) (SEQ ID NO:18) or amL309 (ac-[…]-NH₂) (SEQ ID NO:18) at 2 μg/ml in TBS at 4° C. over-night. After washing once with TBS, the wells were incubated with 2% BSA in TBS for 1 h at RT. After washing once with TBS, the wells were incubated with single clone hybridoma cell culture supernatant clone 7C10-C5 1:50 (˜1 μg/ml) in 1% BSA/TBS for 1 h at RT. After washing twice with TBS, wells were incubated with anti-mouse HRP-coupled secondary antibody for 1 h at RT, followed by washing 3× in PBS. Bound antibodies were detected by colorimetric reaction with 3,3′,5,5′-Tetramethylbenzidine as substrate, and absorbance was measured at 450 nm. Values were normalized to meL309 which was set to 1. Average and standard deviation of N=8 experiments are shown. Statistical significance was assessed using ANOVA followed by Tukey's HSD as a post-hoc test. P values are indicated with *, **, ***, which correspond to values of <0.05, <0.01, and <0.001. […]
In general terms: In an ELISA, binding on a coated surface is turned into a signal by an enzyme label.

Assay [3] concerns the target PP2Ac C-terminal peptide pT304-meL309, ac-HVTRRpTPDYFL-CH3 (human). Kind of assay: ELISA, peptide dilution series, supernatant 1:50.
The target in assay [4] is T3, mouse HA PP4c, carboxymethylated (immunoprecipitated from NIH3T3 cells) (mouse) (UniProt P97470).
T3 sequence (C-terminal leucine α-carboxyl methyl ester (cellular methylation), looked up): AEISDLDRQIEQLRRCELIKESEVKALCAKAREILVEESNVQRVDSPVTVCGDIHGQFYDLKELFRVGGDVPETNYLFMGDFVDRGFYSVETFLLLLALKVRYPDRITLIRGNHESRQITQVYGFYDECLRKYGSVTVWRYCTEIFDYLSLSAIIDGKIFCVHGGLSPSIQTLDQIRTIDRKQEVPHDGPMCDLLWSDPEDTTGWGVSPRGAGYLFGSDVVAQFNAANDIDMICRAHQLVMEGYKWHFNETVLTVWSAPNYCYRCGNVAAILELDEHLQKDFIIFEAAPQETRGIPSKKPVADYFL
Briefly: Western blot quantification, signal normalized to HA level, HA-PP2A set to 1, N=3. (A western blot detects proteins with antibodies after separation by electrophoresis.)

B1: 7C10-C5: α-carboxymethylation specific mouse monoclonal IgG1 antibody from single clone hybridoma 7C10-C5 (DSM ACC3350) (antibody)
heavy: MYRMQLLSCIALSLALVTNSDVQLQESGPGLVKPSQSLSLTCSVTGYSITSGYYWNWIRQFPGNKLEWMGYISYDGSNNYNPSLKNRISITRDTSKNQFFLKLNSVTTEDTATYYCAGRFAYWGQGTLVTVSAAKTTAPSVYPLAPVCGDTTGSSVTLGCLVKGYFPEPVTLTWNSGSLSSGVHTFPAVLQSDLYTLSSSVTVTSSTWPSQSITCNVAHPASSTKVDKKIEPRGPTIKPCPPCKCPAPNLLGGPSVFIFPPKIKDVLMISLSPIVTCVVVDVSEDDPDVQISWFVNNVEVHTAQTQTHREDYNSTLRVVSALPIQHQDWMSGKEFKCKVNNKDLPAPIERTISKPKGSVRAPQVYVLPPPEEEMTKKQVTLTCMVTDFMPEDIYVEWTNNGKTELNYKNTEPVLDSDGSYFMYSKLRVEKKNWVERNSYSCSVVHEGLHNHHTTKSFSRTPGK
light: MDMRVPAQLLGLLLLWLSGARCDVLMTQTPLSLPVSLGDQASISCRSSQSIVHSNGNTYLEWYLQKPGQSPKLLIYKVSNRFSGVPDRFSGSGSGTDFTLKINRVEAEDLGVYYCFQGSHVPWTFGGGTKLEIKADAAPTVSIFPPSSEQLTSGGASVVCFLNNFYPKDINVKWKIDGSERQNGVLNSWTDQDSKDSTYSMSSTLTLTKDEYERHNSYTCEATHKTSTSPIVKSFNRNEC
modifications: Amino acid sequence of the recombinant 7C10-C5 heavy chain; Amino acid sequence of the recombinant 7C10-C5 light chain
Turning to B1, in assay [1], the “carboxymethylated versus non-carboxymethylated PP6c peptide signal” value was “No significant difference”.

B2: 7C10-C5 monoclonal antibody (antibody, V domains shown)
VH: DVQLQESGPGLVKPSQSLSLTCSVTGYSITSGYYWNWIRQFPGNKLEWMGYISYDGSNNYNPSLKNRISITRDTSKNQFFLKLNSVTTEDTATYYCAGRFAYWGQGTLVTVSA
VL: DVLMTQTPLSLPVSLGDQASISCRSSQSIVHSNGNTYLEWYLQKPGQSPKLLIYKVSNRFSGVPDRFSGSGSGTDFTLKINRVEAEDLGVYYCFQGSHVPWTFGGGTKLEIK
notes: Used as hybridoma culture supernatant (ELISA, Western blot, IHC) or at 50 µg/mL (SPR); also called 7C10 X63; clone 7C10-C5
Turning to B2, in assay [2], the “fold stronger binding than to the amidated C-terminal part of PP2Ac (ELISA)” value came out at 6.15 fold. In addition, the fold detection difference against the carboxymethylated peptide (meL309) at lower peptide concentrations in assay [3] stood at 4 fold. In assay [4], the 7C10/HA blot signal relative to HA-PP2A = 1 was 0.01 7C10/HA.
